EC50 data for one molecule are collected here from patent publication US20180118814A1.

In assay [1] the target is HBsAg-L antigen (Beacle, BCL-AG-001) (hepatitis B virus). The experiment in a line: ELISA, plate coated with 1 µg/mL HBsAg-L, anti-human kappa-HRP detection, cell culture supernatant.
For assay [2] the target is unchanged. The experiment in a line: ELISA, plate coated with 1 µg/mL HBsAg-L, anti-human kappa-HRP detection, purified protein.

B1: HBV24G (antibody, human IgG1, kappa, V domains shown)
VH: QVQLVQSGAEVKAPGASVKVSCKASGYTFTSAWMNWVRQAPGQGLEWMGRIYPSGGSTSYAQKFQGRVTMTADKSTSTVYMELSSLRSEDTAVYYCAREYRVARWGQGTLVTVSS
VL: DIVMTQTPLSLSVTPGQPASISCKSSQSLLYSNGKTYLNWLLQKPGQPPQRLIYLVSNRDSGVPDRFSGSGSGTDFTLKISRVEAEDVGVYYCVQGTHFPQTFGGGTKVEIKR
As for B1, the concentration for a half-maximal effect (EC50) in assay [1] is 0.057 nM; in assay [2], 0.061 nM.
